In the assay the target is BMP9 growth factor domain (GFD) dimer (human) (UniProt Q9UK05). Kind of assay: ELISA; displacement assay: anti-human CD105 antibody coated; sENG(M):BMP9 or sENG(D):BMP9 captured 2 h at room temperature; BMPRII or ActRIIB ECD at 0x, 1x, 5x, 25x, 125x molar excess for 30 min; BMP9 left in the complex detected with biotinylated anti-BMP9.
Chain of BMP9 growth factor domain (GFD) dimer (human) (Q9UK05 320-429): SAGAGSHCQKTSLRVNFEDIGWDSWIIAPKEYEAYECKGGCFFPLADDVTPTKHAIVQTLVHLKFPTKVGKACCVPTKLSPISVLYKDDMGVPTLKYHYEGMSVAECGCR

Regarding “BMP receptor type II (BMPRII) extracellular domain (from UniProt Q13873 27-150) (domain or fragment)”, the percent displacement of sENG from the sENG(D):BMP9 complex at 125-fold molar excess was > 50%.

Source of the values: publication PMC12824264.
